# In the RNAGym collection of RNA variant scans (doi:10.1093/nar/gkz1192):
# B1: CPEB3 Ribozyme (parent)
# chain: UAACAGGGGGCCACAGCAGAAGCGUUCACGUCGCAGCCCCUGUCAGAUUCUGGUGAAUCUGCGAAUUCUGCUGUAUAUCUC
# Variants of: B1
# Assay: self-cleavage, relative activity (ratio to wild type); higher = more cleavage; in vitro, sequencing
# Summary of the method: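 After error-prone PCR and barcoding, CPEB3 ribozyme mutant libraries were transcribed with T7 RNA polymerase at 37°C for 5 hours, then given 15 min with DNase I before an EDTA stop, and they cleaved during both steps. Reverse transcription with template switching preceded Illumina sequencing. Relative activity divides a variant's cleaved/total read fraction by the unmutated ribozyme's. At least 5 reads were required per variant, and three batches were averaged.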
row,Variant,self-cleavage
1,A5U C12U,1.14
2,A5G G9A,0.39
3,A5G G7C,0.5
4,A5G G7U,0.39
5,A5G G7A,0.6
6,A5U C68U,0.99
7,A5U C68A,0.29
8,A5G U51C,0.68
9,A5G U51A,0.63
10,A5G U51G,0.68
11,A5G U76A,0.85
12,A5G U76C,0.76
13,A5G U76G,0.6
14,A5U C27U,0.22
15,A5U C27G,0.21
16,A5G G24U,0.24
17,A5G G24C,0.89
18,A5U A13C,1.15
19,A5U A13G,1.01
20,A5U A13U,1.16
21,A5U C32G,0.16
22,A5U C32A,0.32
23,A5U C32U,0.31
24,A5U A65G,0.55

row,Variant,self-cleavage
1,A5U A65U,0.28
2,A5U C23G,0.08
3,A5U C23U,0.25
4,A5U A21G,0.77
5,A5U A21C,0.29
6,A5U A21U,0.53
7,A5G G33U,0.43
8,A5G G33C,0.38
9,A5G G33A,0.24
10,A5G U48A,0.45
11,A5G U48G,0.1
12,A5G U48C,0.57
13,A5U A45U,0.54
14,A5U A45G,1.02
15,A5G U58C,0.43
16,A5G U58A,0.24
17,A5U A64C,0.32
18,A5U A64U,0.44
19,A5U A64G,1.03
20,A5U C37U,0.82
21,A5G G8A,0.23
22,A5G G8U,0.46
23,A5G U31G,0.47
24,A5G U31C,0.48

row,Variant,self-cleavage
1,A5G U31A,0.41
2,A5U C39U,0.95
3,A5G G10U,0.39
4,A5G U67C,0.34
5,A5G U67A,0.39
6,A5U C29U,0.54
7,A5U C29A,0.36
8,A5U A15G,0.93
9,A5U A15C,1.18
10,A5U A15U,1.1
11,A5G G42C,0.49
12,A5G G42A,0.4
13,A5U C14A,1.19
14,A5U C14U,0.88
15,A5U A57G,0.97
16,A5U A57C,0.7
17,A5U A57U,0.67
18,A5U A20G,0.91
19,A5U A20C,0.49
20,A5U A18G,0.87
21,A5U A18U,0.34
22,A5U A35C,1.2
23,A5U A35G,1.19
24,A5U A35U,0.63

row,Variant,self-cleavage
1,A5G G19C,0.41
2,A5G G19U,0.45
3,A5G G19A,0.53
4,A5G C81A,1.1
5,A5U C34A,0.65
6,A5U C34U,0.55
7,A5G U80A,0.79
8,A5G U80C,0.66
9,A5G U54A,0.82
10,A5G U54G,0.47
11,A5G U54C,0.64
12,A5G U69C,0.37
13,A5G U69A,0.49
14,A5G U69G,0.49
15,A5U A77G,1.09
16,A5U A77U,1.16
17,A5G G61A,0.49
18,A5U,1.04
19,A5G U26G,0.55
20,A5G U26C,0.44
21,A5G U26A,0.56
22,A5U A47G,0.95
23,A5U C38A,0.34
24,A5U C11G,0.5

row,Variant,self-cleavage
1,A5G U60A,0.31
2,A5G U60C,0.36
3,A5G U60G,0.35
4,A5G G22C,0.34
5,A5G G22A,0.24
6,A5G U43G,0.3
7,A5G U43C,0.43
8,A5G U43A,0.84
9,A5U C62G,0.49
10,A5U C62U,0.22
11,A5G G6U,0.23
12,A5G G6A,0.29
13,A5U C40A,0.09
14,A5U C40U,0.78
15,A5G G36A,0.29
16,A5G G36U,0.72
17,A5G G73C,1.25
18,A5G G73A,1.17
19,A5G G73U,1.17
20,A5G G53C,0.8
21,A5G G53A,0.88
22,A5G G53U,1.03
23,A5G G30A,0.51
24,A5G G30U,0.11

row,Variant,self-cleavage
1,A5G U41C,0.5
2,A5G U41G,0.28
3,A5G U41A,0.32
4,A5G G16A,0.57
5,A5G G16U,0.54
6,A5G G63U,0.95
7,A5G G63C,0.5
8,A5G G63A,0.61
9,A5G U72G,0.79
10,A5G U72C,0.77
11,A5G U72A,0.48
12,A5U A28C,0.77
13,A5U A28U,1.12
14,A5U A28G,0.83
15,A5G U25C,0.39
16,A5G U25G,0.55
17,A5G U25A,0.42
18,A5G U49A,0.53
19,A5G U49C,0.31
20,A5G G55U,0.26
21,A5G G55C,0.65
22,A5G G55A,0.37
23,A5U A75G,0.95
24,A5G G46U,0.4

row,Variant,self-cleavage
1,A5G G70A,0.32
2,A5G G70C,0.25
3,A5G G70U,0.41
4,A5U C17G,0.26
5,A5U C17U,0.73
6,A5U C71A,0.48
7,A5U C50A,1.01
8,A5G G52U,0.73
9,A5G G52A,1
10,A5G U74C,1.01
11,A5G U74A,1.03
12,A5G U74G,1.41
13,A5U C59A,0.43
14,A5U C59G,0.37
15,A5G U66G,0.44
16,A5G U66C,0.38
17,A5G U66A,0.23
18,A5U A56G,0.81
19,A5U A56U,0.9
20,A5U A56C,0.91
21,A5G U78G,0.91
22,A5G U78C,0.63
23,A5G U78A,0.88
